Measured values taken from publication PMC12846431.

What follows are substances tested against TMR-NTT (TMR-labeled Serinc3 NTT(Cys16) peptide, MBP removed) (UniProt Q13530) (assay: fluorescence polarisation). Conditions: read off a plot.
With “complex of wild-type MBP-Nef with the α(1–398)/σ2 hemicomplex of AP2 (from UniProt Q90VU7;P18484;P53680) F121D” the response was 20 mP.
With “complex of wild-type MBP-Nef with the α(1–398)/σ2 hemicomplex of AP2 (from UniProt Q90VU7;P18484;P53680) D123K” the response was 45 mP.
Work on “complex of wild-type MBP-Nef with the α(1–398)/σ2 hemicomplex of AP2 (from UniProt Q90VU7;P18484;P53680) L112D” yielded a response of 16 mP.
For “complex of wild-type MBP-Nef with the α(1–398)/σ2 hemicomplex of AP2 (from UniProt Q90VU7;P18484;P53680) W57A; L58A”, the response was 55 mP.
“complex of wild-type MBP-Nef with the α(1–398)/σ2 hemicomplex of AP2 (from UniProt Q90VU7;P18484;P53680) L37D” showed a response of 37 mP.

These substances were tested against complex of wild-type MBP-Nef with the α(1–398)/σ2 hemicomplex of AP2 (HIV-1 (NL4.3) | not stated) (UniProt Q90VU7) (assay: fluorescence polarisation; α(1–398)/σ2 (20 µM) and MBP-Nef WT or mutant (30 µM) mixed 30 min at room temperature, then 200 nM TMR-NTT, 15 μL, 1 or 2 h at room temperature; single concentration; control is probe only). Conditions: not given.
“TMR-NTT (TMR-labeled Serinc3 NTT(Cys16) peptide, MBP removed) (from UniProt Q13530 1-39)” gave an FP signal of 90 mP.
